In paper PMC8985225 one finds EC50 of CaM for in vitro CaMKII kinase activity (phosphorylation of syntide-2; 0.6 nM to 6 μM CaM) data, which are given here for one substance.

Assay [1] deals with Ca^2+/CaM-dependent kinase II α (CaMKIIα) holoenzyme (rodent) (UniProt P11275).
The target of assay [2] is Ca^2+/CaM-dependent kinase II β (CaMKIIβ) holoenzyme (rodent) (UniProt P08413).
Chain of UniProt P08413 (P08413 whole entry): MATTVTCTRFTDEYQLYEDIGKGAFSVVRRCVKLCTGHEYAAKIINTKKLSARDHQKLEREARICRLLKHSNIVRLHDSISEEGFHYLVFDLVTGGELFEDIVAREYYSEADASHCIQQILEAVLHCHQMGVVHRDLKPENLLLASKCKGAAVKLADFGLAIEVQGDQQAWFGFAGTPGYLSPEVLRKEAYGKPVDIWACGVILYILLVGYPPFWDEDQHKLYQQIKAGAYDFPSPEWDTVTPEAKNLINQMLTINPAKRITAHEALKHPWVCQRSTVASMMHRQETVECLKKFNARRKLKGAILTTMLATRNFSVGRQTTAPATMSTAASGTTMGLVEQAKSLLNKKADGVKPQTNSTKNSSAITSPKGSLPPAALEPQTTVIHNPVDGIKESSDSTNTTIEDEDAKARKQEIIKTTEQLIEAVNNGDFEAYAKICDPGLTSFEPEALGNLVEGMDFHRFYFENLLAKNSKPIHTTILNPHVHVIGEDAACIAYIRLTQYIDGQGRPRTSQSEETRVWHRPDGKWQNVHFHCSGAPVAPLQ

Chain of UniProt P11275 (P11275 whole entry): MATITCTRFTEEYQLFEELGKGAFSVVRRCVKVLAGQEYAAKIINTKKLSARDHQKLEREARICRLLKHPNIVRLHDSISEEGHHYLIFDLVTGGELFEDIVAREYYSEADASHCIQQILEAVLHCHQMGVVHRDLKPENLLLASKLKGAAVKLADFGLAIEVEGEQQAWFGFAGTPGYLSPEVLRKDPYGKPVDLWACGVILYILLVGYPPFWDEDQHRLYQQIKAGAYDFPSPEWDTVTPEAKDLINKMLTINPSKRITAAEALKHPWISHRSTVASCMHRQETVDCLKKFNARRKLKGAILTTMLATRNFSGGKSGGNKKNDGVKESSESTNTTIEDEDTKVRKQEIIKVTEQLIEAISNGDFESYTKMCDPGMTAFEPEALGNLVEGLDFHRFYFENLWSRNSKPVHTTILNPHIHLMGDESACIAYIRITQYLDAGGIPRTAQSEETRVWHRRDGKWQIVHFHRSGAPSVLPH

For the substance “Calmodulin (from UniProt P0DP23 1-149) (natural protein)”, the EC50 of CaM for in vitro CaMKII kinase activity (phosphorylation of syntide-2; 0.6 nM to 6 μM CaM) in assay [1] came out at 30.1 nM; in assay [2], 14.6 nM.
